{
  "source": "paper PMC4682967",
  "key": {"[1]": {"test_system": "scFv-Fc_(CH3A) of A107 and A108 (K370E/K409W)", "test": "non-reducing SDS-PAGE of coexpressed chains; scFv-Fc_(CH3A) and Fc_(CH3B) cotransfected at equivalent molar ratio in HEK293F, Protein A purified from supernatant after 6 days; heterodimer and homodimers told apart by mass, band intensities by ImageJ", "settings": "other: non-reducing SDS-PAGE of coexpressed chains"}, "[2]": {"test_system": "scFv-Fc_(CH3A) of A241 (E357N/S364W/K370E)", "test": "non-reducing SDS-PAGE of coexpressed chains; scFv-Fc_(CH3A) and Fc_(CH3B) cotransfected at equivalent molar ratio in HEK293F, Protein A purified from supernatant after 6 days; heterodimer and homodimers told apart by mass, band intensities by ImageJ", "settings": "other: non-reducing SDS-PAGE of coexpressed chains"}, "[3]": {"test_system": "scFv-Fc_(CH3A) of A216 (E357G/S364W/K370E)", "test": "non-reducing SDS-PAGE of coexpressed chains; scFv-Fc_(CH3A) and Fc_(CH3B) cotransfected at equivalent molar ratio in HEK293F, Protein A purified from supernatant after 6 days; heterodimer and homodimers told apart by mass, band intensities by ImageJ", "settings": "other: non-reducing SDS-PAGE of coexpressed chains"}, "[4]": {"test_system": "scFv-Fc_(CH3A) of A107_(w/o W-VT) (K370E)", "test": "non-reducing SDS-PAGE of coexpressed chains; scFv-Fc_(CH3A) and Fc_(CH3B) cotransfected at equivalent molar ratio in HEK293F, Protein A purified from supernatant after 6 days; heterodimer and homodimers told apart by mass, band intensities by ImageJ", "settings": "other: non-reducing SDS-PAGE of coexpressed chains"}, "[5]": {"test_system": "scFv-Fc_(CH3A) of A109 (K370M/K409W)", "test": "non-reducing SDS-PAGE of coexpressed chains; scFv-Fc_(CH3A) and Fc_(CH3B) cotransfected at equivalent molar ratio in HEK293F, Protein A purified from supernatant after 6 days; heterodimer and homodimers told apart by mass, band intensities by ImageJ", "settings": "other: non-reducing SDS-PAGE of coexpressed chains"}, "[6]": {"test_system": "scFv-Fc_(CH3A) of A109_(w/o W-VT) (K370M)", "test": "non-reducing SDS-PAGE of coexpressed chains; scFv-Fc_(CH3A) and Fc_(CH3B) cotransfected at equivalent molar ratio in HEK293F, Protein A purified from supernatant after 6 days; heterodimer and homodimers told apart by mass, band intensities by ImageJ", "settings": "other: non-reducing SDS-PAGE of coexpressed chains"}, "[7]": {"test_system": "scFv-Fc_(CH3A) of A146 (K370D/K409W)", "test": "non-reducing SDS-PAGE of coexpressed chains; scFv-Fc_(CH3A) and Fc_(CH3B) cotransfected at equivalent molar ratio in HEK293F, Protein A purified from supernatant after 6 days; heterodimer and homodimers told apart by mass, band intensities by ImageJ", "settings": "other: non-reducing SDS-PAGE of coexpressed chains"}, "[8]": {"test_system": "scFv-Fc_(CH3A) of A146_(w/o W-VT) (K370D)", "test": "non-reducing SDS-PAGE of coexpressed chains; scFv-Fc_(CH3A) and Fc_(CH3B) cotransfected at equivalent molar ratio in HEK293F, Protein A purified from supernatant after 6 days; heterodimer and homodimers told apart by mass, band intensities by ImageJ", "settings": "other: non-reducing SDS-PAGE of coexpressed chains"}, "[9]": {"test_system": "scFv-Fc_(CH3A) of A205 (E357D/S364W/K370E)", "test": "non-reducing SDS-PAGE of coexpressed chains; scFv-Fc_(CH3A) and Fc_(CH3B) cotransfected at equivalent molar ratio in HEK293F, Protein A purified from supernatant after 6 days; heterodimer and homodimers told apart by mass, band intensities by ImageJ", "settings": "other: non-reducing SDS-PAGE of coexpressed chains"}, "[10]": {"test_system": "scFv-Fc_(CH3A) of A210 (E357A/S364Y/K370E)", "test": "non-reducing SDS-PAGE of coexpressed chains; scFv-Fc_(CH3A) and Fc_(CH3B) cotransfected at equivalent molar ratio in HEK293F, Protein A purified from supernatant after 6 days; heterodimer and homodimers told apart by mass, band intensities by ImageJ", "settings": "other: non-reducing SDS-PAGE of coexpressed chains"}, "[11]": {"test_system": "scFv-Fc_(CH3A) of B121 (D399E/K409W)", "test": "non-reducing SDS-PAGE of coexpressed chains; scFv-Fc_(CH3A) and Fc_(CH3B) cotransfected at equivalent molar ratio in HEK293F, Protein A purified from supernatant after 6 days; heterodimer and homodimers told apart by mass, band intensities by ImageJ", "settings": "other: non-reducing SDS-PAGE of coexpressed chains"}, "[12]": {"test_system": "scFv-Fc_(CH3A) of B135 and B168 (D399L/K409W)", "test": "non-reducing SDS-PAGE of coexpressed chains; scFv-Fc_(CH3A) and Fc_(CH3B) cotransfected at equivalent molar ratio in HEK293F, Protein A purified from supernatant after 6 days; heterodimer and homodimers told apart by mass, band intensities by ImageJ", "settings": "other: non-reducing SDS-PAGE of coexpressed chains"}, "[13]": {"test_system": "scFv-Fc_(CH3A) of B168_(w/o W-VT) (D399L)", "test": "non-reducing SDS-PAGE of coexpressed chains; scFv-Fc_(CH3A) and Fc_(CH3B) cotransfected at equivalent molar ratio in HEK293F, Protein A purified from supernatant after 6 days; heterodimer and homodimers told apart by mass, band intensities by ImageJ", "settings": "other: non-reducing SDS-PAGE of coexpressed chains"}, "[14]": {"test_system": "scFv-Fc_(CH3A) of B212 (K392I/D399L)", "test": "non-reducing SDS-PAGE of coexpressed chains; scFv-Fc_(CH3A) and Fc_(CH3B) cotransfected at equivalent molar ratio in HEK293F, Protein A purified from supernatant after 6 days; heterodimer and homodimers told apart by mass, band intensities by ImageJ", "settings": "other: non-reducing SDS-PAGE of coexpressed chains"}, "[15]": {"test_system": "scFv-Fc_(CH3A) of B240 (K392S/K409R/D399L)", "test": "non-reducing SDS-PAGE of coexpressed chains; scFv-Fc_(CH3A) and Fc_(CH3B) cotransfected at equivalent molar ratio in HEK293F, Protein A purified from supernatant after 6 days; heterodimer and homodimers told apart by mass, band intensities by ImageJ", "settings": "other: non-reducing SDS-PAGE of coexpressed chains"}, "[16]": {"test_system": "scFv-Fc_(CH3A) of B215 (K392R/K409R/D399L)", "test": "non-reducing SDS-PAGE of coexpressed chains; scFv-Fc_(CH3A) and Fc_(CH3B) cotransfected at equivalent molar ratio in HEK293F, Protein A purified from supernatant after 6 days; heterodimer and homodimers told apart by mass, band intensities by ImageJ", "settings": "other: non-reducing SDS-PAGE of coexpressed chains"}, "[17]": {"test_system": "scFv-Fc_(CH3A) of B235 (K392C/D399L)", "test": "non-reducing SDS-PAGE of coexpressed chains; scFv-Fc_(CH3A) and Fc_(CH3B) cotransfected at equivalent molar ratio in HEK293F, Protein A purified from supernatant after 6 days; heterodimer and homodimers told apart by mass, band intensities by ImageJ", "settings": "other: non-reducing SDS-PAGE of coexpressed chains"}, "[18]": {"test_system": "scFv-Fc_(CH3A) of B239 (K392L/D399L)", "test": "non-reducing SDS-PAGE of coexpressed chains; scFv-Fc_(CH3A) and Fc_(CH3B) cotransfected at equivalent molar ratio in HEK293F, Protein A purified from supernatant after 6 days; heterodimer and homodimers told apart by mass, band intensities by ImageJ", "settings": "other: non-reducing SDS-PAGE of coexpressed chains"}, "[19]": {"test_system": "scFv-Fc_(CH3A) of B256 (K392N/D399L)", "test": "non-reducing SDS-PAGE of coexpressed chains; scFv-Fc_(CH3A) and Fc_(CH3B) cotransfected at equivalent molar ratio in HEK293F, Protein A purified from supernatant after 6 days; heterodimer and homodimers told apart by mass, band intensities by ImageJ", "settings": "other: non-reducing SDS-PAGE of coexpressed chains"}, "[20]": {"test_system": "scFv-Fc_(CH3A) of W-VT (K409W)", "test": "non-reducing SDS-PAGE of coexpressed chains; scFv-Fc_(CH3A) and Fc_(CH3B) cotransfected at equivalent molar ratio in HEK293F, Protein A purified from supernatant after 6 days; heterodimer and homodimers told apart by mass, band intensities by ImageJ", "settings": "other: non-reducing SDS-PAGE of coexpressed chains"}, "[21]": {"molecular_target": "human neonatal Fc receptor (FcRn) (human) (UniProt P55899)", "test": "SPR; human FcRn coated on the chip at approximately 1,000 response units; serially diluted Fc proteins applied; pH 6.0; mean ± SD of two independent experiments, at least 5 data sets each"}},
  "data": [
    {"substance": "Fc_(CH3B) of A107 (E357N/D399V/F405T)", "values": [
      {"measurement": "heterodimer yield (%)", "setting": "[1]", "result": 93.4, "unit": "%"}
    ]},
    {"substance": "Fc_(CH3B) of A107_(w/o W-VT), A216 and A241 (E357N)", "values": [
      {"measurement": "heterodimer yield (%)", "setting": "[2]", "result": 81, "unit": "%"},
      {"measurement": "heterodimer yield (%)", "setting": "[3]", "result": 80.3, "unit": "%"},
      {"measurement": "heterodimer yield (%)", "setting": "[4]", "result": 78.2, "unit": "%"}
    ]},
    {"substance": "Fc_(CH3B) of A108 (E357I/S364T/D399V/F405T)", "values": [
      {"measurement": "heterodimer yield (%)", "setting": "[1]", "result": 70.5, "unit": "%"}
    ]},
    {"substance": "Fc_(CH3B) of A109 (E357M/S364W/D399V/F405T)", "values": [
      {"measurement": "heterodimer yield (%)", "setting": "[5]", "result": 90.5, "unit": "%"}
    ]},
    {"substance": "Fc_(CH3B) of A109_(w/o W-VT) (E357M/S364W)", "values": [
      {"measurement": "heterodimer yield (%)", "setting": "[6]", "result": 61.6, "unit": "%"}
    ]},
    {"substance": "Fc_(CH3B) of A146 (E357M/D399V/F405T)", "values": [
      {"measurement": "heterodimer yield (%)", "setting": "[7]", "result": 74.5, "unit": "%"}
    ]},
    {"substance": "Fc_(CH3B) of A146_(w/o W-VT) (E357M)", "values": [
      {"measurement": "heterodimer yield (%)", "setting": "[8]", "result": 71, "unit": "%"}
    ]},
    {"substance": "Fc_(CH3B) of A205 (E357N/K370R)", "values": [
      {"measurement": "heterodimer yield (%)", "setting": "[9]", "result": 88.8, "unit": "%"}
    ]},
    {"substance": "Fc_(CH3B) of A210 (E357N/K370H)", "values": [
      {"measurement": "heterodimer yield (%)", "setting": "[10]", "result": 80.8, "unit": "%"}
    ]},
    {"substance": "Fc_(CH3B) of B121 (K392E/D399V/F405T)", "values": [
      {"measurement": "heterodimer yield (%)", "setting": "[11]", "result": 73.3, "unit": "%"}
    ]},
    {"substance": "Fc_(CH3B) of B135 (K392S/K409L/D399V/F405T)", "values": [
      {"measurement": "heterodimer yield (%)", "setting": "[12]", "result": 67.8, "unit": "%"}
    ]},
    {"substance": "Fc_(CH3B) of B168 (K392G/K409M/D399V/F405T)", "values": [
      {"measurement": "heterodimer yield (%)", "setting": "[12]", "result": 77.7, "unit": "%"}
    ]},
    {"substance": "Fc_(CH3B) of B168_(w/o W-VT) (K392G/K409M)", "values": [
      {"measurement": "heterodimer yield (%)", "setting": "[13]", "result": 60.9, "unit": "%"}
    ]},
    {"substance": "Fc_(CH3B) of B212 and B240 (D399G/K392G/K409M)", "values": [
      {"measurement": "heterodimer yield (%)", "setting": "[14]", "result": 65.3, "unit": "%"},
      {"measurement": "heterodimer yield (%)", "setting": "[15]", "result": 83.3, "unit": "%"}
    ]},
    {"substance": "Fc_(CH3B) of B215 (D399W/K392G/K409M)", "values": [
      {"measurement": "heterodimer yield (%)", "setting": "[16]", "result": 78.1, "unit": "%"}
    ]},
    {"substance": "Fc_(CH3B) of B235 (D399C/K392G/K409M)", "values": [
      {"measurement": "heterodimer yield (%)", "setting": "[17]", "result": 89.4, "unit": "%"}
    ]},
    {"substance": "Fc_(CH3B) of B239 (D399S/K392G/K409M)", "values": [
      {"measurement": "heterodimer yield (%)", "setting": "[18]", "result": 76.3, "unit": "%"}
    ]},
    {"substance": "Fc_(CH3B) of B256 (D399V/K392G/K409M)", "values": [
      {"measurement": "heterodimer yield (%)", "setting": "[19]", "result": 79.4, "unit": "%"}
    ]},
    {"substance": "Fc_(CH3B) of W-VT (D399V/F405T)", "values": [
      {"measurement": "heterodimer yield (%)", "setting": "[20]", "result": 60.8, "unit": "%"}
    ]},
    {"substance": "wild-type human IgG1 Fc homodimer (Fc-WT) (domain or fragment)", "values": [
      {"measurement": "Kd", "setting": "[21]", "result": 35.6, "unit": "nM"},
      {"measurement": "koff", "setting": "[21]", "result": "5.83e-05", "unit": "s⁻¹"},
      {"measurement": "kon", "setting": "[21]", "result": 1640, "unit": "M⁻¹ s⁻¹"}
    ]}
  ]
}
